# Reference: paper PMC8281026, “Peptide Based Inhibitors of Protein Binding to the Mitogen-Activated Protein Kinase Docking Groove” (Frontiers in Molecular Biosciences, 2021)
# Primed or numbered codes have the meaning given here. The star is where a group is joined. Dabcyl′ = 4-((4-(dimethylamino)phenyl)azo)benzoyl, CN(C)c1ccc(/N=N/c2ccc(C(=O)*)cc2)cc1
# B1: H-RRPPWLRLDI-NH2 (peptide 5) (peptide)
# peptide: H-RRPPWLRLDI-NH2
# notes: source: synthetic peptide (Fmoc/tBu solid phase on Rink-amide MBHA resin, RP-HPLC purified)
# B2: H-RRPPWLRLDIRR-NH2 (peptide 6) (peptide)
# peptide: H-RRPPWLRLDIRR-NH2
# notes: peptide 5 extended at the C-terminus by two Arg; source: synthetic peptide (Fmoc/tBu solid phase on Rink-amide MBHA resin, RP-HPLC purified)
# B3: H-SLQRKKPPWLKLDIPSC-NH2 (peptide 1, RHDF1 linear binding motif) (peptide)
# peptide: H-SLQRKKPPWLKLDIPSC-NH2
# notes: C-terminal cysteine that follows the 16 residues of the motif in the printed peptide; not part of the motif as printed in the text; The added Cys probably serves for conjugation (cysteine containing peptides were joined to chloroacetylated peptides); also called original peptide; source: synthetic peptide (Fmoc/tBu solid phase on Rink-amide MBHA resin, RP-HPLC purified)
# B4: H-RRRPPWLRLDIRR-NH2 (peptide 8) (peptide)
# peptide: H-RRRPPWLRLDIRR-NH2
# notes: peptide 6 with one more Arg at the N-terminus; source: synthetic peptide (Fmoc/tBu solid phase on Rink-amide MBHA resin, RP-HPLC purified)
# B5: H-KKPPWLKLDI-NH2 (peptide 4) (peptide)
# peptide: H-KKPPWLKLDI-NH2
# notes: RHDF1 docking motif without the flanking regions SLQR (N-terminus) and PS (C-terminus); also called short peptide; truncated construct; source: synthetic peptide (Fmoc/tBu solid phase on Rink-amide MBHA resin, RP-HPLC purified)
# B6: Dabcyl-RRRPPWLRLDIRRK-NH2 (peptide 10) (peptide)
# peptide: {Dabcyl′}-RRRPPWLRLDIRRK-NH2
# SMILES: CC[C@H](C)[C@H](NC(=O)[C@H](CC(=O)O)NC(=O)[C@H](CC(C)C)NC(=O)[C@H](CCCNC(=N)N)NC(=O)[C@H](CC(C)C)NC(=O)[C@H](Cc1c[nH]c2ccccc12)NC(=O)[C@@H]1CCCN1C(=O)[C@@H]1CCCN1C(=O)[C@H](CCCNC(=N)N)NC(=O)[C@H](CCCNC(=N)N)NC(=O)[C@H](CCCNC(=N)N)NC(=O)c1ccc(/N=N/c2ccc(N(C)C)cc2)cc1)C(=O)N[C@@H](CCCNC(=N)N)C(=O)N[C@@H](CCCNC(=N)N)C(=O)N[C@@H](CCCCN)C(N)=O
# notes: peptide 8 with a Lys at the C-terminus and a Dabcyl group on the N-terminus; also called Dabcyl-containing peptide (unlabelled); source: synthetic peptide (Fmoc/tBu solid phase on Rink-amide MBHA resin, RP-HPLC purified)
# Target: T1, ERK2 (UniProt P28482 1-360)
# T1 construct: The in vitro activity assay used active, phosphorylated pp-ERK2 (1 nM); also called extracellular signal-regulated kinase 2; MAPK; source: recombinantly expressed in Escherichia coli, purified according to Garai et al
# T1 sequence (P28482 whole entry): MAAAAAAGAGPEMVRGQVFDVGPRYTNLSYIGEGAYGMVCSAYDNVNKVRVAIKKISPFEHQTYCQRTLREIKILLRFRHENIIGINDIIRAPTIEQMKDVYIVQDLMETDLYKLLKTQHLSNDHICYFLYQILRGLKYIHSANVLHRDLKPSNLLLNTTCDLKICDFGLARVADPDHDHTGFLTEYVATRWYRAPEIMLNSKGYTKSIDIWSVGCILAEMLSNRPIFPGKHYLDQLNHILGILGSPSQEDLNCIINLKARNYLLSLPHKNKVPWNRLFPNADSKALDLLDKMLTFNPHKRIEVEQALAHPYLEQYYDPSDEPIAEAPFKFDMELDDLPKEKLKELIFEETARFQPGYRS
# Assay: fluorescence polarisation; competitive: complex of the MAPK with 50 nM Cf-RHDF at 60-80% complex formation titrated with increasing unlabeled peptide; 20 mM Tris pH 8.0, 100 mM NaCl, 0.05% Brij35, 2 mM TCEP; 384-well black plates; triplicates; constants are called Kd in Table 1 and Ki in the methods
# Conditions: both partners purified
row,Binder,Kd
1,B1,19.5 µM
2,B2,5.2 µM
3,B3,1.8 µM
4,B4,1.3 µM
5,B5,15 µM
6,B6,4.6 µM

# Target: T2, p38α (UniProt Q16539 1-360)
# T2 construct: The in vitro activity assay used active, phosphorylated pp-p38α (1 nM); source: recombinantly expressed in Escherichia coli, purified according to Garai et al
# T2 sequence (Q16539 whole entry): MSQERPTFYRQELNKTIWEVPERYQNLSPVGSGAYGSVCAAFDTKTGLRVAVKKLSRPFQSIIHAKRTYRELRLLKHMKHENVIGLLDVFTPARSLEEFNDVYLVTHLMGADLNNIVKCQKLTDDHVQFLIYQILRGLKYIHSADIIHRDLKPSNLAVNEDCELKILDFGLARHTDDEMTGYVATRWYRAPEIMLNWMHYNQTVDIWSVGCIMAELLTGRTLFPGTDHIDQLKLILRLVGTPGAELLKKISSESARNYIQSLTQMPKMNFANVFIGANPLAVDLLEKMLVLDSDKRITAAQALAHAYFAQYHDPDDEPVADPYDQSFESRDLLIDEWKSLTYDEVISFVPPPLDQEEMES
# Assay: as above
# Conditions: both partners purified
row,Binder,Kd
1,B1,10 µM
2,B3,1.1 µM
3,B4,1.4 µM
4,B6,1 µM
